Results on 4 molecules are retold here after article PMC3589550 (Nature structural & molecular biology, 2011).

Entries after “also recorded” stand apart in the source; their conditions may differ.

In one test the test system is p53. Description: p53 ubiquitination on vIRF4 expression. The format is cell-based.
In test [1] the target is T1, HAUSP (Homo sapiens, UniProt Q93009). In words: In vitro deubiquitination. The note with it: immunopurified Flag-HAUSP complexes, K48-linked 3–7 polyubiquitin chains. The format is biochemical.
Test [2] concerns the target T1, HAUSP. Description: Co-IP / GST pull-down of HAUSP. Format: binding. The note with it: transfected 293T cells.
Test [3] addresses HAUSP TRAF domain (HAUSP^62–205) (Homo sapiens, UniProt Q93009). Format: binding. The conditions noted are these: ITC.

Chain of HAUSP TRAF domain (HAUSP^62–205) (Q93009 62-205): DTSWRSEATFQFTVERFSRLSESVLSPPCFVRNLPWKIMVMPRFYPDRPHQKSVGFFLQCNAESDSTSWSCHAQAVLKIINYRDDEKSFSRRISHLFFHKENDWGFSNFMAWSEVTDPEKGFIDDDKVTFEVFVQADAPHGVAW
T1 sequence (Q93009 whole entry): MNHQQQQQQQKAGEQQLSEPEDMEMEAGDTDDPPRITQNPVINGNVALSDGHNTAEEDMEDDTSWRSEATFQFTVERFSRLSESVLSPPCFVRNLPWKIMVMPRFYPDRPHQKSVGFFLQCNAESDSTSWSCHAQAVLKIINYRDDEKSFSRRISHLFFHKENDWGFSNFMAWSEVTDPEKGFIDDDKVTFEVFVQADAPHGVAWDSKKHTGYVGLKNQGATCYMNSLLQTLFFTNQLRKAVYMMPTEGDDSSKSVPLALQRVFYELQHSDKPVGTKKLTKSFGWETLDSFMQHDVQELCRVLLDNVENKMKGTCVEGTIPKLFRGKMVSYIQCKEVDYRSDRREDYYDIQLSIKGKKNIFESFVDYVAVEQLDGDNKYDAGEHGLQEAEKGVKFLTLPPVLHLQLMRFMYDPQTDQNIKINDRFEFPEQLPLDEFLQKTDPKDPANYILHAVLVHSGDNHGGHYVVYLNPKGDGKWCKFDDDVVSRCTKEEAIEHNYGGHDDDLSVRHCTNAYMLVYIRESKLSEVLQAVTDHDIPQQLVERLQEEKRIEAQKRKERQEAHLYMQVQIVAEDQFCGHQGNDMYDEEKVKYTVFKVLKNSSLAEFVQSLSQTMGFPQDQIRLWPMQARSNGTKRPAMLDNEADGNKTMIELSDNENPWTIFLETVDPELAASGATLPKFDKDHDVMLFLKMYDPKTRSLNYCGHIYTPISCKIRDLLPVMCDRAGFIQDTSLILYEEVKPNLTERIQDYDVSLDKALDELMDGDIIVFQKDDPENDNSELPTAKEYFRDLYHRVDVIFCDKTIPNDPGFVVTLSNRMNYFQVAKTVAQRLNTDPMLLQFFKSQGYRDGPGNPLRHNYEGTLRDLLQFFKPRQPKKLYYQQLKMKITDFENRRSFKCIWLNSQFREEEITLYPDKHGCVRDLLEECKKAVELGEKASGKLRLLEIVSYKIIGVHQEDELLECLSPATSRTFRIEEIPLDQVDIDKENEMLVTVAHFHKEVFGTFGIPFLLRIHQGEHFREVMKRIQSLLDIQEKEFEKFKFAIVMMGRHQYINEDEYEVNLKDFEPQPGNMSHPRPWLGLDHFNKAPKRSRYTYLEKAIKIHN

B1: vIRF4: KSHV viral interferon regulatory factor 4 (protein)
chain: MPKAGGSEWATLWIIDALENNKFPYFSWFDRNNLLFAAPAPLPAGSDIPPGWYSVYHAFDEECDRVYGPSPVVGQTVYGRFGRLLRGTRRAVVRNDLRYSDTFGGSYVVWQLVRTPFKNCTYCYGAAYGPEKLQRFIQCLLSPPMQTTATRRSDTREQSYEEAGAAAPAPPKAPSGLRGRPRKSNRYYNVGDITTEQKAACSVWIPVNEGASTSGMGSSGTRQVTQASSFTWRVPGDPPAPSTLTGPSDPHSSGAGLPGTAPPKPQHETRLAGTVSGVSGVAQTPGDTGQLAPPMRDGSRLPSTSPWIPACFPWGDLPVTGWWPQGASGLPEKVHPPTTGQFDPLSPRWTYTGIPSSQLNPAAPSWIPPHAQAGTFVGEFSQGAPLAPQGLLPQSGQCASAWLPRRETGAEGACGASTEGRAPQGAASERVYPFEPQPPSAPAPGYAKPSCYNWSPLAEPPATRPIRAPVWHPPVGHAVVPEVRTPLWIPWSSGGAPNQGLSHTQGGASATPSAGAPPTPEVAERQEPSSSGIPYVCQGDNMATGYRRVTTSSGALEVEIIDLTGDSDTPSTTVASTPLPVSGPRVFQPTVLYSAPEPAVNPEVSHLPTELERRECVCPGSGERPRVPLVSTYAGDRYAVGGYGPEQSLVPPPLGLPLTLSNLQGEDICTWEEGLGNILSELQEEPSSSTRQATDRRRPRSRSPHGRRTPVSHSGPEKPPSKMFFDPPDSQRVSFVVEIFVYGNLRGTLRREGDAGEAMLCSWPVGDTLGHLCQSFVPELLRIPRLTVPSPEQMEILNRVFEGLGHGFPIFCSMSGIYSRNATQVEGWWFGNPNSRYERILRSFSPRVPQQLFNTARYLATTAAIPQTPLSVNPVTCGTVFFGASPASTENFQNVPLTVKIFIGSIWDSLH
modifications: left off: V5, end not stated, kept
Take B1: the p53 ubiquitination entry in the test on p53 was “markedly induced p53 ubiquitination”. Besides, in the test with HAUSP [1], the “HAUSP DUB activity” value is “effectively suppressed HAUSP DUB activity in a binding-dependent manner”.

B2: vIRF4^153–256: central region fragment of vIRF4, residues 153–256 (protein)
chain: SDTREQSYEEAGAAAPAPPKAPSGLRGRPRKSNRYYNVGDITTEQKAACSVWIPVNEGASTSGMGSSGTRQVTQASSFTWRVPGDPPAPSTLTGPSDPHSSGAG
Regarding B2, in the test with HAUSP [2], the “interaction with HAUSP” value was “specifically interacts with; also recorded: sufficient to bind to HAUSP”. For the same molecule, the “fold higher TRAF affinity (C-terminally extended)” value in test [3] (compared with vIRF4^153–216 / vIRF4^202–216) turned out to be 7 fold.

B3: vIRF4^153–256/Δ202–216: vIRF4^153–256 with residues 202–216 deleted (protein)
chain: SDTREQSYEEAGAAAPAPPKAPSGLRGRPRKSNRYYNVGDITTEQKAACGSSGTRQVTQASSFTWRVPGDPPAPSTLTGPSDPHSSGAG
For B3, the “TRAF binding affinity, in words” value in test [3] is “significant reduction of TRAF binding affinity”.

B4: vIRF4^153–256/Δ202–216/Δ237–256: vIRF4^153–256 with residues 202–216 and 237–256 deleted (protein)
chain: SDTREQSYEEAGAAAPAPPKAPSGLRGRPRKSNRYYNVGDITTEQKAACGSSGTRQVTQASSFTWRVPG
With B4, the “TRAF binding affinity, in words” value in test [3] is reported as “had no further effect”.
